For experiment [1], the target named is T1, Human Nectin-4 Protein, His Tag (human, UniProt Q96NY8 32-349).
T1 construct: not shown: His tag
T1 sequence (looked up): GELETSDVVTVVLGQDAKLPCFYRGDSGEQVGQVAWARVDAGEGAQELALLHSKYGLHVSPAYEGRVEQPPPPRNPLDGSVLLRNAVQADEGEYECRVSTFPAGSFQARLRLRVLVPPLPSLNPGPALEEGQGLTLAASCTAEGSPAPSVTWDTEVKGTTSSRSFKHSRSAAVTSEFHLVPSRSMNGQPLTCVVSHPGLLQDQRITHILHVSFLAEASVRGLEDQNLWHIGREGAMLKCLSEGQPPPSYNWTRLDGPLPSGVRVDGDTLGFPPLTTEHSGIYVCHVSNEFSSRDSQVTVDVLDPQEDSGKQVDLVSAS
The experiment in a line: BLI (Fortebio), antibody with human Nectin-4 protein. How it is done:
In this experiment, Fortebio was used to detect the affinity of Nectin-4 humanized antibodies to human Nectin-4 protein. After the Nectin-4 protein was incubated with the anti-Nectin-4 antibody sample, the signal value was detected by Fortebio to analyze the affinity of the sample to human Nectin-4. […] The chimeric antibodies were engineered on the basis of mouse-derived antibodies, and the constant region is selected from human IgG1.

Experiment [2] addresses Cynomolgus Nectin-4 Protein, His Tag (cynomolgus). The experiment in a line: ELISA, Nectin-4 protein with antibody dilutions, goat anti-human IgG secondary antibody.
The target of experiment [3] is T2, Recombinant Rat Nectin-4 His-tag Protein, CF (rat) (UniProt D3ZET1).
T2 sequence: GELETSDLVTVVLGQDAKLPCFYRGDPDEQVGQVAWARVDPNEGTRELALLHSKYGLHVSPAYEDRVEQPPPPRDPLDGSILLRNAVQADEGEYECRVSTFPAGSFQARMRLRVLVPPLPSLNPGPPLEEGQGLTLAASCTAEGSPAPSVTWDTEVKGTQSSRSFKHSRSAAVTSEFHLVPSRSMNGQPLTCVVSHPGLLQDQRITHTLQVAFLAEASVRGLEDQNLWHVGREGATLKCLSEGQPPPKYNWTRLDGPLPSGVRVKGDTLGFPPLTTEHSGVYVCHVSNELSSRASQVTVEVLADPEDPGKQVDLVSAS
Described as above.

Experiment [4] concerns the target T3, Mouse Nectin-4 Protein, His Tag (mouse, UniProt Q8R007 31-347).
T3 construct: not shown: His tag
T3 sequence (looked up): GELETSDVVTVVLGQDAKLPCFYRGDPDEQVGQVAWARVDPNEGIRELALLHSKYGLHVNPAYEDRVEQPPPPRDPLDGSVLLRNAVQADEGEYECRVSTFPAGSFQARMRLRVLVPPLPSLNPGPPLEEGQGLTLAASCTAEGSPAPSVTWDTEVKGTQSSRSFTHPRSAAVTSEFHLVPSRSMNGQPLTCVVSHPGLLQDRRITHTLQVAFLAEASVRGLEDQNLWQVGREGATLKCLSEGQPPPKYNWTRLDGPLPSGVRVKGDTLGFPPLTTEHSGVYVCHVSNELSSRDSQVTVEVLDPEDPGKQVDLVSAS
The description is as above. How it is done:
(§1) The affinities of Nectin-4 humanized antibodies to Nectin-4 proteins of different species were performed by ELISA. Nectin-4 proteins of different species (human Nectin-4, cynomolgus Nectin-4, rat Nectin-4, mouse Nectin-4) were incubated with Nectin-4 humanized antibody samples of different concentrations, and then incubated with the secondary antibody which binds IgG (Goat anti-Human IgG (H+L) Cross-Adsorbed Secondary Antibody. The signal values of different concentrations were detected by ELISA to analyze the affinities of the samples to Nectin-4 proteins of different species. The experimental results are shown in Table 6, showing that the Nectin-4 humanized antibodies have good affinity for human, rat and cynomolgus Nectin-4 proteins.

The target in experiment [5] is T1, Human Nectin-4 Protein, His Tag. The experiment is described as above. How it is done: as §1
Experiment [6] has as its target T4, Recombinant Rat Nectin-4 His-tag Protein, CF (rat, UniProt D3ZET1 31-348).
T4 construct: not shown: His tag
T4 sequence: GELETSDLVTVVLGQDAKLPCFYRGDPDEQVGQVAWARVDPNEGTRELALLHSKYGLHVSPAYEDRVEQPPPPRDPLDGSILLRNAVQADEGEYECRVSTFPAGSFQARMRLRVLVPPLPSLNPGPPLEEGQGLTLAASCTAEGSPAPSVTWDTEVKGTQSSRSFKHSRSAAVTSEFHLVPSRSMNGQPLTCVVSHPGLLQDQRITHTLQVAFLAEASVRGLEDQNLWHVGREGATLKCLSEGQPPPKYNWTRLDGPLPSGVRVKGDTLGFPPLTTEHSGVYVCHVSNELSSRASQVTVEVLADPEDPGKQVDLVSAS
The description is as above. How it is done:
as §1

Experiment [7] deals with T5, Cynomolgus Nectin-4 Protein, His Tag (cynomolgus, UniProt A0A2K5WES1 32-349).
T5 construct: not shown: His tag
T5 sequence: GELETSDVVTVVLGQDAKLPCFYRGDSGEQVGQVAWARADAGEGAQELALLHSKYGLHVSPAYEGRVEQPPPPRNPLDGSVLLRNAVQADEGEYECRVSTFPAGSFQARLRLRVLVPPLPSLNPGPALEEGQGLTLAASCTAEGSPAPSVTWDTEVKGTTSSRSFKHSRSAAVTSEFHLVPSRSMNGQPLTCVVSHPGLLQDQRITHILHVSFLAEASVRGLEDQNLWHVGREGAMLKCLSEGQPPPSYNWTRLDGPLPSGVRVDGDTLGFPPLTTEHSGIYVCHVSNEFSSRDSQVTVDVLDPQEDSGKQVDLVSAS
The description is as above. How it is done:
as §1

This note sets out measurements from patent US20240366778A1 (CSPC MEGALITH BIOPHARMARCEUTICAL, published 2024).

B1: Chimeric antibody (antibody, V domains shown)
VH: QVQLQQSGPVLVKPGASVRISCKASGYTFTSYYIHWVKQRPGQGLEWIGWIYPGNVNTKYNENFRDKATLTADKSSSTSYMQLSSLTSEDSAVYFCARGIYYFDYWGQGTTLTVSS
VL: IIVMTQTPKFLLVSAGDRVTITCKASQSVNNDVAWYQEKPGQSPKLLIYYASNRDTGVPDRFTGSGYGTDFTFTISTVQAEDLAVYFCHQDYSSPFTFGSGTKLEIK
notes: also called chimeric anti-Nectin-4 antibody; murine antibody variable regions on human IgG1
As for B1, in experiment [1], the dissociation constant Kd was determined as 2.8 nM, the koff worked out at 0.00181 s⁻¹ and the kon turned out to be 646000 M⁻¹ s⁻¹.

B2: PADCEV (antibody, INN chains, looked up, V domains shown)
VH: EVQLVESGGGLVQPGGSLRLSCAASGFTFSSYNMNWVRQAPGKGLEWVSYISSSSSTIYYADSVKGRFTISRDNAKNSLSLQMNSLRDEDTAVYYCARAYYYGMDVWGQGTTVTVSS
VL: DIQMTQSPSSVSASVGDRVTITCRASQGISGWLAWYQQKPGKAPKFLIYAASTLQSGVPSRFSGSGSGTDFTLTISSLQPEDFATYYCQQANSFPPTFGGGTKVEIKR
modifications: vedotin (MMAE) payload
For B2, the concentration for a half-maximal effect (EC50) was 0.000968 µg/mL in experiment [2], 0.00101 µg/mL in experiment [3], 0.0824 µg/mL in experiment [4] and 0.000877 µg/mL in experiment [5].

B3: humanized antibody SWY2001-Ab3 (antibody, human IgG1, kappa, V domains shown)
VH: QVQLVQSGAEVKKPGASVKVSCKASGYTFTSYYIHWVRQAPGQRLEWMGWIYPGNVNTKYNENFRDRVTITRDTSASTAYMELSSLRSEDTAVYYCARGIYYFDYWGQGTLVTVSS
VL: AIQMTQSPSSLSASVGDRVTITCKASQSVNNDVAWYQQKPGKAPKLLIYYASNRDTGVPSRFSGSGSGTDFTLTISSLQPEDFATYFCHQDYSSPFTFGGGTKVEIKR
notes: Full-length IgG1, kappa
B3: the EC50 amounted to 0.000942 µg/mL in experiment [6], 2210 µg/mL in experiment [4], 0.00102 µg/mL in experiment [5] and 0.000832 µg/mL in experiment [7]. The Kd in experiment [1] came out at 5.08 nM. The molecule also returned a koff in experiment [1] of 0.00425 s⁻¹. The kon in experiment [1] turned out to be 836000 M⁻¹ s⁻¹.

B4: humanized antibody SWY2001-Ab2 (antibody, human IgG1, kappa, V domains shown)
VH: QVQLVQSGAEVKKPGASVKVSCKASGYTFTSYYIHWVRQAPGQRLEWMGWIYPGNVNTKYNENFRDRVTITRDTSASTAYMELSSLRSEDTAVYYCARGIYYFDYWGQGTLVTVSS
VL: AIQMTQSPSSLSASVGDRVTITCKASQSVNNDVAWYQQKPGKAPKLLIYYASNRDTGVPSRFSGSGSGTDFTLTISSLQAEDLAVYFCHQDYSSPFTFGGGTKVEIKR
notes: Full-length IgG1, kappa
Turning to B4, the EC50 was 0.000726 µg/mL in experiment [6], 1050 µg/mL in experiment [4], 0.00113 µg/mL in experiment [5] and 0.000646 µg/mL in experiment [7]. This molecule displayed a dissociation constant (Kd) in experiment [1] of 5.51 nM. Besides, the koff in experiment [1] amounted to 0.00414 s⁻¹. The molecule also yielded a kon in experiment [1] of 752000 M⁻¹ s⁻¹.

B5: humanized antibody SWY2001-Ab1 (antibody, human IgG1, kappa, V domains shown)
VH: QVQLVQSGAEVKKPGASVKVSCKASGYTFTSYYIHWVRQAPGQRLEWMGWIYPGNVNTKYNENFRDRVTITRDTSASTAYMELSSLRSEDTAVYYCARGIYYFDYWGQGTLVTVSS
VL: IIQMTQSPKFLSASVGDRVTITCKASQSVNNDVAWYQQKPGQSPKLLIYYASNRDTGVPDRFSGSGSGTDFTLTISSLQPEDFATYFCHQDYSSPFTFGGGTKVEIKR
For the molecule B5, the EC50 in experiment [6] worked out at 0.000857 µg/mL. Moreover, in experiment [5], the 50% effective concentration (EC50) turned out to be 0.00121 µg/mL. This molecule had an EC50 in experiment [7] of 0.000647 µg/mL. Moreover, in experiment [1], the Kd was 5.92 nM, the koff was 0.00447 s⁻¹ and the kon came out at 756000 M⁻¹ s⁻¹.
